Experimental data reported in patent US20180346602A1.
Blank lines part the entries; values can stand above or below the binder they belong to.

Columns and labels:
[1] = target: anti-VEGF/ANG2 antibody (wild-type IgG1 subclass) (human) [IgG part: P01857]; test: sandwich ELISA assay C; capture on SA plate; tracer FcγRI-Dig; analyte 6 ng/mL
target antibodies [2] = test: depletion of target antibody from sample; concentration before depletion 10.00 µg/mL
[3] = target: anti-VEGF/ANG2 antibody (wild-type IgG1 subclass) (human) [IgG part: P01857]; test: sandwich ELISA assay B; capture on SA plate; tracer M1.7.10-Dig; analyte 6 ng/mL
[4] = target: anti-VEGF/ANG2 antibody (wild-type IgG1 subclass) (human) [IgG part: P01857]; test: sandwich ELISA assay C; capture on SA plate; tracer FcγRI-Dig; analyte 3 ng/mL
[5] = target: anti-VEGF/ANG2 antibody (wild-type IgG1 subclass) (human) [IgG part: P01857]; test: sandwich ELISA assay B; capture on SA plate; tracer M1.7.10-Dig; analyte 13 ng/mL
[6] = target: anti-VEGF/ANG2 antibody (wild-type IgG1 subclass) (human) [IgG part: P01857]; test: sandwich ELISA assay C; capture on SA plate; tracer FcγRI-Dig; analyte 100 ng/mL
target antibodies [7] = test: depletion of target antibody from sample; concentration before depletion 100.00 µg/mL
target antibodies [8] = test: depletion of target antibody from sample; concentration before depletion 1.00 µg/mL
[9] = target: anti-VEGF/ANG2 antibody (wild-type IgG1 subclass) (human) [IgG part: P01857]; test: sandwich ELISA assay C; capture on SA plate; tracer FcγRI-Dig; analyte 50 ng/mL
[10] = target: anti-VEGF/ANG2 antibody (IgG1 subclass with mutations P329G/L234A/L235A/I253A/H310A/H435A) [IgG part: P01857]; test: sandwich ELISA assay E; tracer M1.7.10-Dig; analyte 1) at 6.25 ng/mL
[11] = target: anti-VEGF/ANG2 antibody (IgG1 subclass with mutations P329G/L234A/L235A/I253A/H310A/H435A) [IgG part: P01857]; test: sandwich ELISA assay E; tracer M1.7.10-Dig; analyte 1) at 25 ng/mL
[12] = target: anti-Dig antibody (IgG1 subclass with mutations P329G/L234A/L235A) [IgG part: P01857]; test: sandwich ELISA assay D; tracer M1.7.10-Dig; analyte conc. not printed (row 5 of 8)
[13] = target: anti-Dig antibody (IgG1 subclass with mutations P329G/L234A/L235A) [IgG part: P01857]; test: sandwich ELISA assay D; tracer M1.7.10-Dig; analyte conc. not printed (row 1 of 8)
[14] = target: anti-VEGF/ANG2 antibody (IgG1 subclass with mutations P329G/L234A/L235A/I253A/H310A/H435A) [IgG part: P01857]; test: sandwich ELISA assay E; tracer M1.7.10-Dig; analyte 1) at 100 ng/mL
[15] = target: anti-VEGF/ANG2 antibody (IgG1 subclass with mutations P329G/L234A/L235A) [IgG part: P01857]; test: sandwich ELISA assay E; tracer M1.7.10-Dig; analyte 2) at 6.25 ng/mL
[16] = target: anti-Dig antibody (IgG1 subclass with mutations P329G/L234A/L235A) [IgG part: P01857]; test: sandwich ELISA assay D; tracer M1.19.31-Dig; analyte conc. not printed (row 2 of 8)
[17] = target: anti-VEGF/ANG2 antibody (IgG1 subclass with mutations P329G/L234A/L235A) [IgG part: P01857]; test: sandwich ELISA assay E; tracer M1.7.10-Dig; analyte 2) at 1.5625 ng/mL
[18] = target: anti-Dig antibody (IgG1 subclass with mutations P329G/L234A/L235A) [IgG part: P01857]; test: sandwich ELISA assay D; tracer M1.7.10-Dig; analyte conc. not printed (row 2 of 8)
[19] = target: anti-VEGF/ANG2 antibody (IgG1 subclass with mutations P329G/L234A/L235A) [IgG part: P01857]; test: sandwich ELISA assay E; tracer M1.7.10-Dig; analyte 2) at 25 ng/mL
[20] = target: anti-Dig antibody (IgG1 subclass with mutations P329G/L234A/L235A) [IgG part: P01857]; test: sandwich ELISA assay D; tracer M1.7.10-Dig; analyte conc. not printed (row 7 of 8)
[21] = target: anti-Dig antibody (IgG1 subclass with mutations P329G/L234A/L235A) [IgG part: P01857]; test: sandwich ELISA assay D; tracer M1.19.31-Dig; analyte conc. not printed (row 8 of 8)
[22] = target: anti-Dig antibody (IgG1 subclass with mutations P329G/L234A/L235A) [IgG part: P01857]; test: sandwich ELISA assay D; tracer M1.19.31-Dig; analyte conc. not printed (row 4 of 8)
[23] = target: anti-Dig antibody (IgG1 subclass with mutations P329G/L234A/L235A) [IgG part: P01857]; test: sandwich ELISA assay D; tracer M1.7.10-Dig; analyte conc. not printed (row 6 of 8)
[24] = target: anti-Dig antibody (IgG1 subclass with mutations P329G/L234A/L235A) [IgG part: P01857]; test: sandwich ELISA assay D; tracer M1.19.31-Dig; analyte conc. not printed (row 5 of 8)
[25] = target: anti-VEGF/ANG2 antibody (IgG1 subclass with mutations P329G/L234A/L235A/I253A/H310A/H435A) [IgG part: P01857]; test: sandwich ELISA assay E; tracer M1.7.10-Dig; analyte 1) at 12.5 ng/mL

- signal [OD405 nm] [1]: 0.064 OD405 nm
- concentration after depletion (target antibodies [2]): 0.0005 µg/mL
- recovery [%] (target antibodies [2]): 0.005%
- signal [OD405 nm] [3]: 0.039 OD405 nm
- signal [OD405 nm] [4]: 0.069 OD405 nm
- signal [OD405 nm] [5]: 0.046 OD405 nm
- signal [OD405 nm] [6]: 0.076 OD405 nm
- concentration after depletion (target antibodies [7]): 0.0143 µg/mL
- recovery [%] (target antibodies [7]): 0.014%
- concentration after depletion (target antibodies [8]): 0.0003 µg/mL
- recovery [%] (target antibodies [8]): 0.031%
- signal [OD405 nm] [9]: 0.067 OD405 nm
B1: anti-AAA variant Fc-region antibody M1.6.22 (antibody, V domains shown)
VH: EVQLVESGGDLVKPGGSLKLSCAASGFTFSSYGMSWVRQTPDKRLEWVATISSGGSYIYYPDSVKGRFTISRDNAKNTLYLQMSSLKSEDTAMYYCARLGMITTGYAMDYWGQGTSVTVSS
VL: DVLMTQTPLSLPVSLGDQASISCRSSQTIVHSTGHTYLEWFLQKPGQSPKLLIYKVSNRFSGVPDRFSGSGSGTDFTLKISRVEAEDLGVYYCFQGSHVPYTFGGGTKLEIK

- signal [OD405 nm] [10]: 0.677 OD405 nm
- signal [OD405 nm] [11]: 1.6 OD405 nm
- concentration after depletion (target antibodies [2]): 0.0017 µg/mL
- recovery [%] (target antibodies [2]): 0.017%
- signal 10% cynomolgus serum [OD405 nm] [12]: 0.096 OD405 nm
- signal 10% human serum [OD405 nm] [12]: 2.49 OD405 nm
- signal buffer [OD405 nm] [12]: 0.031 OD405 nm
- signal 10% cynomolgus serum [OD405 nm] [13]: 2.12 OD405 nm
- signal 10% human serum [OD405 nm] [13]: 2.66 OD405 nm
- signal buffer [OD405 nm] [13]: 0.053 OD405 nm
- signal [OD405 nm] [14]: 2.29 OD405 nm
- signal [OD405 nm] [15]: 0.577 OD405 nm
- signal 10% cynomolgus serum [OD405 nm] [16]: 0.872 OD405 nm
- signal 10% human serum [OD405 nm] [16]: 2.14 OD405 nm
- signal buffer [OD405 nm] [16]: 0.041 OD405 nm
- signal [OD405 nm] [17]: 0.187 OD405 nm
- signal 10% cynomolgus serum [OD405 nm] [18]: 1.18 OD405 nm
- signal 10% human serum [OD405 nm] [18]: 2.55 OD405 nm
- signal buffer [OD405 nm] [18]: 0.038 OD405 nm
- signal [OD405 nm] [19]: 1.48 OD405 nm
- signal 10% cynomolgus serum [OD405 nm] [20]: 0.052 OD405 nm
- signal 10% human serum [OD405 nm] [20]: 2.53 OD405 nm
- signal buffer [OD405 nm] [20]: 0.029 OD405 nm
- signal 10% cynomolgus serum [OD405 nm] [21]: 0.077 OD405 nm
- signal 10% human serum [OD405 nm] [21]: 1.8 OD405 nm
- signal buffer [OD405 nm] [21]: 0.036 OD405 nm
- signal 10% cynomolgus serum [OD405 nm] [22]: 0.162 OD405 nm
- signal 10% human serum [OD405 nm] [22]: 1.73 OD405 nm
- signal buffer [OD405 nm] [22]: 0.037 OD405 nm
- signal 10% cynomolgus serum [OD405 nm] [23]: 0.065 OD405 nm
- signal 10% human serum [OD405 nm] [23]: 2.53 OD405 nm
- signal buffer [OD405 nm] [23]: 0.032 OD405 nm
- signal 10% cynomolgus serum [OD405 nm] [24]: 0.105 OD405 nm
- signal 10% human serum [OD405 nm] [24]: 1.71 OD405 nm
- signal buffer [OD405 nm] [24]: 0.036 OD405 nm
- signal [OD405 nm] [25]: 1.09 OD405 nm
- concentration after depletion (target antibodies [7]): 0.0173 µg/mL
- recovery [%] (target antibodies [7]): 0.017%
- concentration after depletion (target antibodies [8]): 0.0007 µg/mL
- recovery [%] (target antibodies [8]): 0.067%
B2: anti-variant (human) Fc-region antibody M1.3.17 (antibody, V domains shown)
VH: EVKLLESGGGLVQPGGSLKLSCAASGIDFRRYWMNWVRQAPGKGLEWIGEIDPDSSTINYTPSLKDKFIISRDNAKNTMYLQMRKVRSEDTALYYCARPYDYGAWFAYWGQGTLVTVSA
VL: QAVVTQESALTTSPGETVTLTCRSTTGAVTTSNYANWVQEKPDHLFTGLIGGTNKRAPGVPARFSGSLIGDKAALTITGAQTEDEAIYFCALWYSDHWVFGGGTKLTVL

- signal [OD405 nm] [1]: 0.057 OD405 nm
- signal [OD405 nm] [10]: 0.64 OD405 nm
- signal [OD405 nm] [11]: 1.55 OD405 nm
- signal [OD405 nm] [3]: 0.038 OD405 nm
- signal 10% cynomolgus serum [OD405 nm] [12]: 0.094 OD405 nm
- signal 10% human serum [OD405 nm] [12]: 2.41 OD405 nm
- signal buffer [OD405 nm] [12]: 0.031 OD405 nm
- signal 10% cynomolgus serum [OD405 nm] [13]: 2.37 OD405 nm
- signal 10% human serum [OD405 nm] [13]: 2.74 OD405 nm
- signal buffer [OD405 nm] [13]: 0.062 OD405 nm
- signal [OD405 nm] [4]: 0.053 OD405 nm
- signal [OD405 nm] [5]: 0.04 OD405 nm
- signal [OD405 nm] [14]: 2.31 OD405 nm
- signal [OD405 nm] [15]: 0.528 OD405 nm
- signal 10% cynomolgus serum [OD405 nm] [16]: 1.17 OD405 nm
- signal 10% human serum [OD405 nm] [16]: 2.04 OD405 nm
- signal buffer [OD405 nm] [16]: 0.051 OD405 nm
- signal [OD405 nm] [17]: 0.172 OD405 nm
- signal 10% cynomolgus serum [OD405 nm] [18]: 1.41 OD405 nm
- signal 10% human serum [OD405 nm] [18]: 2.61 OD405 nm
- signal buffer [OD405 nm] [18]: 0.046 OD405 nm
- signal [OD405 nm] [6]: 0.073 OD405 nm
- signal [OD405 nm] [19]: 1.39 OD405 nm
- signal 10% cynomolgus serum [OD405 nm] [20]: 0.041 OD405 nm
- signal 10% human serum [OD405 nm] [20]: 2.44 OD405 nm
- signal buffer [OD405 nm] [20]: 0.034 OD405 nm
- signal 10% cynomolgus serum [OD405 nm] [21]: 0.035 OD405 nm
- signal 10% human serum [OD405 nm] [21]: 1.42 OD405 nm
- signal buffer [OD405 nm] [21]: 0.033 OD405 nm
- signal 10% cynomolgus serum [OD405 nm] [22]: 0.173 OD405 nm
- signal 10% human serum [OD405 nm] [22]: 1.43 OD405 nm
- signal buffer [OD405 nm] [22]: 0.037 OD405 nm
- signal 10% cynomolgus serum [OD405 nm] [23]: 0.05 OD405 nm
- signal 10% human serum [OD405 nm] [23]: 2.4 OD405 nm
- signal buffer [OD405 nm] [23]: 0.031 OD405 nm
- signal 10% cynomolgus serum [OD405 nm] [24]: 0.078 OD405 nm
- signal 10% human serum [OD405 nm] [24]: 1.33 OD405 nm
- signal buffer [OD405 nm] [24]: 0.033 OD405 nm
- signal [OD405 nm] [25]: 1.06 OD405 nm
- signal [OD405 nm] [9]: 0.066 OD405 nm
B3: anti-variant (human) Fc-region antibody M1.7.24 (antibody, V domains shown)
VH: EVKLLESGGGLVQPGGSLKLSCAASGFDFSRYWMNWVRQAPGKGLEWIGEITPDSSTINYTPSLKDKFIISRDNAKNTLYLQMIKVRSEDTALYYCVRPYDYGAWFASWGQGTLVTVSA
VL: QAVVTQESALTTSPGETVTLTCRSSTGAVTTSNYANWVQEKPDHLFTGLIGGTNKRAPGVPARFSGSLIGDKAALTITGAQTEDEAIYFCALWYSNHWVFGGGTKLTVL
